From patent US20220064329A1 (Novo Nordisk, published 2022)
Substitutions are numbered along the chain they refer to. Names and notes keep the numbering of the source.

T1: recombinant human activated Factor VII (FVIIa) (human, UniProt P08709 61-212; P08709 213-466, ten glutamate residues of the Gla domain may be gamma-carboxylated)
T1 construct: chains tethered by a disulfide bond; also called Factor VIIa; rFVIIa
T1 sequence 1: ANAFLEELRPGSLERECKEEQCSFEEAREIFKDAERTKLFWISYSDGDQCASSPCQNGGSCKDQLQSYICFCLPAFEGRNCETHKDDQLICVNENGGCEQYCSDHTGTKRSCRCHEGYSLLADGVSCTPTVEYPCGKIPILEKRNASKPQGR
T1 sequence 2: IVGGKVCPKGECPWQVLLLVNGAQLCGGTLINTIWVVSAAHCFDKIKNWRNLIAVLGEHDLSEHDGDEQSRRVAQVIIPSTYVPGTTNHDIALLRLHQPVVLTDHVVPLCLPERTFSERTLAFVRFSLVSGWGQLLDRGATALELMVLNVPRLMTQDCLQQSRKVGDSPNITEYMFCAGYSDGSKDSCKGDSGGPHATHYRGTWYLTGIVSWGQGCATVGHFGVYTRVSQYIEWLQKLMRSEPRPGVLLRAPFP

B1: VH SEQ ID NO 538 / VL SEQ ID NO 454 (antibody, IgG4, V domains shown)
VH: QVQLQESGPGLVEPSQTLSLTCTVSGYSITSDSAWSWIRQPPGKKLEWIGYIQYSGSTNYNPSLKSRVTISRDTSKNQFSLKLSSVTAADTAVYYCARSVNYYGNSFAVGYWGQGTLVTVSS
VL: EIVLTQSPATLSLSPGERATLSCRASQGVSDYLHWYQQKPGEAPRLLIKYASQPATGIPARFSGSGSGTDFTLTISSLEPEDFAVYYCQNGHSFPLTFGQGTKLEIK
notes: humanized 11F2; IgG4 S228P/kappa
B2: VH SEQ ID NO 546 / VL SEQ ID NO 462 (antibody, IgG4, V domains shown)
VH: B1 VH with L117S
VL: B1 VL with E42Q, Q100A
notes: as for B1
B3: VH SEQ ID NO 546 / VL SEQ ID NO 430 (antibody, IgG4, V domains shown)
VH: B1 VH with L117S
VL: B1 VL with H34A, E42Q, A84G
notes: as for B1
B4: VH SEQ ID NO 546 / VL SEQ ID NO 310 (antibody, IgG4, V domains shown)
VH: B1 VH with L117S
VL: B1 VL with V29I, H34A, E42Q
notes: as for B1
B5: VH SEQ ID NO 538 / VL SEQ ID NO 478 (antibody, IgG4, V domains shown)
VH: B1 VH
VL: B1 VL with E42Q, N90Q
notes: as for B1
B6: VH SEQ ID NO 546 / VL SEQ ID NO 414 (antibody, IgG4, V domains shown)
VH: B1 VH with L117S
VL: B1 VL with H34A, E42Q
notes: as for B1
B7: VH SEQ ID NO 538 / VL SEQ ID NO 462 (antibody, IgG4, V domains shown)
VH: B1 VH
VL: B1 VL with E42Q, Q100A
notes: as for B1
B8: VH SEQ ID NO 554 / VL SEQ ID NO 318 (antibody, IgG4, V domains shown)
VH: B1 VH with E13K, Q16D, T23A, T30S, P41F, K45G, I70M, R72V, A89L, Y111P
VL: B1 VL with V29I, A51T
notes: as for B1
B9: VH SEQ ID NO 546 / VL SEQ ID NO 374 (antibody, IgG4, V domains shown)
VH: B1 VH with L117S
VL: B1 VL with V29L, H34A, E42Q, A51T
notes: as for B1
B10: VH SEQ ID NO 546 / VL SEQ ID NO 406 (antibody, IgG4, V domains shown)
VH: B1 VH with L117S
VL: B1 VL with H34A, E42Q, Q100A
notes: as for B1
B11: VH SEQ ID NO 546 / VL SEQ ID NO 494 (antibody, IgG4, V domains shown)
VH: B1 VH with L117S
VL: B1 VL with E42Q, F83V
notes: as for B1
B12: VH SEQ ID NO 546 / VL SEQ ID NO 502 (antibody, IgG4, V domains shown)
VH: B1 VH with L117S
VL: B1 VL with E42Q, A51T
notes: as for B1
B13: VH SEQ ID NO 546 / VL SEQ ID NO 422 (antibody, IgG4, V domains shown)
VH: B1 VH with L117S
VL: B1 VL with H34A, E42Q, N90Q
notes: as for B1
B14: VH SEQ ID NO 546 / VL SEQ ID NO 366 (antibody, IgG4, V domains shown)
VH: B1 VH with L117S
VL: B1 VL with V29L, H34A
notes: as for B1
B15: VH SEQ ID NO 538 / VL SEQ ID NO 494 (antibody, IgG4, V domains shown)
VH: B1 VH
VL: B1 VL with E42Q, F83V
notes: as for B1
B16: VH SEQ ID NO 546 / VL SEQ ID NO 390 (antibody, IgG4, V domains shown)
VH: B1 VH with L117S
VL: B1 VL with H34A
notes: as for B1
B17: VH SEQ ID NO 546 / VL SEQ ID NO 350 (antibody, IgG4, V domains shown)
VH: B1 VH with L117S
VL: B1 VL with V29I, E42Q, A51T, Q100A, I106L
notes: as for B1
B18: VH SEQ ID NO 546 / VL SEQ ID NO 470 (antibody, IgG4, V domains shown)
VH: B1 VH with L117S
VL: B1 VL with E42Q
notes: as for B1
B19: VH SEQ ID NO 546 / VL SEQ ID NO 446 (antibody, IgG4, V domains shown)
VH: B1 VH with L117S
VL: B1 VL with H34A, E42Q, A51T
notes: as for B1
B20: VH SEQ ID NO 546 / VL SEQ ID NO 454 (antibody, IgG4, V domains shown)
VH: B1 VH with L117S
VL: B1 VL
notes: as for B1
B21: VH SEQ ID NO 546 / VL SEQ ID NO 382 (antibody, IgG4, V domains shown)
VH: B1 VH with L117S
VL: B1 VL with V29L
notes: as for B1
B22: VH SEQ ID NO 546 / VL SEQ ID NO 438 (antibody, IgG4, V domains shown)
VH: B1 VH with L117S
VL: B1 VL with H34A, E42Q, F83V
notes: as for B1
B23: VH SEQ ID NO 546 / VL SEQ ID NO 334 (antibody, IgG4, V domains shown)
VH: B1 VH with L117S
VL: B1 VL with V29I, E42Q
notes: as for B1
B24: VH SEQ ID NO 538 / VL SEQ ID NO 486 (antibody, IgG4, V domains shown)
VH: B1 VH
VL: B1 VL with E42Q, A84G
notes: as for B1
B25: VH SEQ ID NO 554 / VL SEQ ID NO 326 (antibody, IgG4, V domains shown)
VH: B1 VH with E13K, Q16D, T23A, T30S, P41F, K45G, I70M, R72V, A89L, Y111P
VL: B1 VL with V29I, A51T, A84G, Q100A, I106L
notes: as for B1
B26: VH SEQ ID NO 538 / VL SEQ ID NO 470 (antibody, IgG4, V domains shown)
VH: B1 VH
VL: B1 VL with E42Q
notes: as for B1
B27: VH SEQ ID NO 546 / VL SEQ ID NO 398 (antibody, IgG4, V domains shown)
VH: B1 VH with L117S
VL: B1 VL with H34A, A51T
notes: as for B1
B28: VH SEQ ID NO 546 / VL SEQ ID NO 486 (antibody, IgG4, V domains shown)
VH: B1 VH with L117S
VL: B1 VL with E42Q, A84G
notes: as for B1
B29: VH SEQ ID NO 546 / VL SEQ ID NO 326 (antibody, IgG4, V domains shown)
VH: B1 VH with L117S
VL: B1 VL with V29I, A51T, A84G, Q100A, I106L
notes: as for B1
B30: VH SEQ ID NO 546 / VL SEQ ID NO 342 (antibody, IgG4, V domains shown)
VH: B1 VH with L117S
VL: B1 VL with V29I, E42Q, A51T, T69R, Q100A, I106L
notes: as for B1
B31: VH SEQ ID NO 546 / VL SEQ ID NO 478 (antibody, IgG4, V domains shown)
VH: B1 VH with L117S
VL: B1 VL with E42Q, N90Q
notes: as for B1
B32: VH SEQ ID NO 546 / VL SEQ ID NO 358 (antibody, IgG4, V domains shown)
VH: B1 VH with L117S
VL: B1 VL with V29I, E42Q, A51T
notes: as for B1
B33: VH SEQ ID NO 546 / VL SEQ ID NO 318 (antibody, IgG4, V domains shown)
VH: B1 VH with L117S
VL: B1 VL with V29I, A51T
notes: as for B1
B34: VH SEQ ID NO 538 / VL SEQ ID NO 502 (antibody, IgG4, V domains shown)
VH: B1 VH
VL: B1 VL with E42Q, A51T
notes: as for B1

Target: T1, recombinant human activated Factor VII …
Experiment: BLI (Fortebio)

| Binder | Kd [nM] |
| --- | --- |
| B1 | 1.2 |
| B2 | 1.1 |
| B3 | 8.1 |
| B4 | 3.2 |
| B5 | 1.8 |
| B6 | 7.1 |
| B7 | 1.3 |
| B8 | 15 |
| B9 | 6.8 |
| B10 | 6.7 |
| B11 | 1.2 |
| B12 | 1.1 |
| B13 | 24 |
| B14 | 5.7 |
| B15 | 1.1 |
| B16 | 7 |
| B17 | 0.96 |

| Binder | Kd [nM] |
| --- | --- |
| B18 | 1.2 |
| B19 | 10 |
| B20 | 1.1 |
| B21 | 1.3 |
| B22 | 8 |
| B23 | 1.1 |
| B24 | 1 |
| B25 | 14 |
| B26 | 1 |
| B27 | 11 |
| B28 | 1.1 |
| B29 | 0.81 |
| B30 | 1.2 |
| B31 | 2 |
| B32 | 0.99 |
| B33 | 0.86 |
| B34 | 0.88 |
